Results: the DeepSol protein solubility set

assay: soluble on expression in E. coli; label from the status in PepcDB or PDB records

**Q.** For “GMDDLTNLAARLRLLEDREEIRELIARYGPLADSGDAEALSELWVEDGEYAVVGFATAKGRAAIAALIDGQTHRALMADGCAHFLGPATVTVEGDTATARCHSVVFRCVSGTFGSHRVSANRWTFRRTPAGWRAVRRENALLDGSAAARALLQFR”, which “soluble on expression in E. coli” value is on record?
**A.** Its value is “soluble”.

**Q.** For “DIGCYTLGLLPPFDAQDSSTDMGSSIGIANGVYRATGNIPIAVIGDSTFFHSGISALANAVYNQTPMLVLVLDNRSTAMTGQQPSPSKEIDIGEVAKGLGVKYVRYVDPFDVNSSIRELSNALKWVKDNKQPAVVIAKRACALLVMDNVEESNLPKA”, which “soluble on expression in E. coli” value is on record?
**A.** Its value is “not soluble”.

**Q.** With “MQKKSIYVAYTGGTIGMQRSEQGYIPVSGHLQRQLALMPEFHRPEMPDFTIHEYTPLMDSSDMTPEDWQHIAEDIKAHYDDYDGFVILHGTDTMAYTASALSFMLENLGKPVIVTGSQIPLAELRSDGQINLLNALYVAANYPINEVTLFFNNRLYRGNRTTKAHADGFDAFASPNLPPLLEAGIHIRRLNTPPAPHGEGELIVHPITPQPIGVVTIYPGISADVVRNFLRQPVKALILRSYGVGNAPQNKAFLQELQEASDRGIVVVNLTQCMSGKVNMGGYATGNALAHAGVIGGADMTVEATLTKLHYLLSQELDTETIRKAMSQNLRGELTPDD” as the sequence, how does the “soluble on expression in E. coli” value read?
**A.** Its value is “soluble”.

**Q.** With “MSSKPLYTILTVFNPIFIYFTKRDNLHTLRFKKDRAIKISEELFPDELCERCGRCCILHAYKTEDGIKTIYCEHLDPETKLCKVYKDRFKHRCLTVMEGILAGVFPKDCPYVKNLKNYEEPWFYRHLRDLEHHHHHH” as the sequence, how does the “soluble on expression in E. coli” value read?
**A.** Its value is “not soluble”.

**Q.** For “MYPLTLLRISRNRIVELELKNNDQLRGLLHKCDMAMNLHLKSVTIQKEDGSSIFINECYLKGTSIRLVKLESKILLEQREECVSNNKA”, which “soluble on expression in E. coli” value is on record?
**A.** Its value is “not soluble”.

**Q.** With “MRFFNKYKLFLDCAYKHLNIVLLDFKTNTVVDQLTIPVQQNLTELAVYHLEKLLKKNKVRNNTVRQFYVTTGPGSFTGQRVGAIIAKTWCTVNPNCQLFALNSLRLQIPYGCGISKISAGNEKNYCGLFTETTSEIALLAKPDFVKLCKANTELPVYENFENIDSIEELFLNNIERFELVENPQNLELLYLKDPVN” as the sequence, how does the “soluble on expression in E. coli” value read?
**A.** The value was “soluble”.

**Q.** For “MATTTMTMIQALRSAMDVMLERDDNVVVYGQDVGYFGGVFRCTEGLQTKYGKSRVFDAPISESGIVGTAVGMGAYGLRPVVEIQFADYFYPASDQIVSEMARLRYRSAGEFIAPLTLRMPCGGGIYGGQTHSQSPEAMFTQVCGLRTVMPSNPYDAKGLLIASIECDDPVIFLEPKRLYNGPFDGHHDRPVTPWSKHPHSAVPDGYYTVPLDKAAITRPGNDVSVLTYGTTVYVAQVAAEESGVDAEVIDLRSLWPLDLDTIVESVKKTGRCVVVHEATRTCGFGAELVSLVQEHCFHHLEAPIERVTGWDTPYPHAQEWAYFPGPSRVGAALKKVMEV”, which “soluble on expression in E. coli” value is on record?
**A.** Its value is “soluble”.

**Q.** For “MNHTSGITPLHPSIFHNILGLVALQTTRVGGVSASPLDSLNLGTHVGDDPERVRENERRLCAFLEISCESIVTTGQVHGTEIAVVTGPGKLDGYDALITTVRGLFVGILTADCYPILIYDRRTRACGAAHAGWQGTAGRIAEKTVNAMHNSFGTRPEDCLAWVGTGISGECYEIGGEVAARFSSRYLKPSPSGEGRQLLDLSAANRDQLIEAGIPPSQVQCSELCSYRDADRFFSYRRDNGKTGRMLALIGLRHSD”, which “soluble on expression in E. coli” value is on record?
**A.** The value was “soluble”.

**Q.** With “MGITDGVVVDLGGGTTGISILEKGKVIFVADEPTGGTHMTLVLAGSYGIDFETAEDIKTDKKKEKEVFVQITPVLQKMAAIVKKYIKDYKVKDVFLVGGACSFDGSESIFERELGLNIYKPYMPVLEHHHHHH” as the sequence, how does the “soluble on expression in E. coli” value read?
**A.** The value was “not soluble”.

**Q.** Which “soluble on expression in E. coli” value does the source give for “MAHHHHHHMRRVERSSRGEGEDTLATGEANVRTDTTVDVLRRASRHAQGAIETSWMTTRRLQVQGEQLEEIDRALDKMEHDLGVGDDALRRMTWTGRVKRWFTSRRKQPSDGVESSTSSSVPSSSLPIKPQGLREKNQQREGTRGSKRDDVIGCGSSTSHIAMEEEKLLDALLGDVHAMREQATLQGAMLTEHNRRLDVIATKTDAVHNHVNRTKQKVEKML” here?
**A.** Its value is “soluble”.

**Q.** Which “soluble on expression in E. coli” value does the source give for “MPANKAKYKIIKQQVKNNILSARYKIGDRLPTESDFMAEFDVSRFTIRRAIDELVNENFVRRVQGNGMYIKDWHKVNKADEDLRTIAVITTHVADYIFPNIINAIDKVISDAGYSLILANTHNDPKRERDNLLRLLKLKPSAWIIEPTQSAVNRENLDLYQQIKKLDVPAVFINSSYPGIGFPCLKTDDRGSLSELTNYLFSIGHRRIMGVFQIDDIQGVERMKGFADAYLGHPYFSDRQTTIMYKSTDDYDEIFTRITNFYKNQTVDKPDAIICYNDQLAIALIDNLKEQGWKIPEDISIIGFDDYNISRYITPTLTTLSHPKSQMGRDAGKMILNLIDNKAVKSITYYPELVLRKSVMPI” here?
**A.** The value was “not soluble”.

**Q.** With “MGQRQAKQHMQAGVKLYHQRHYAQAINKWRQSLNRLNNAEDRFITLGYLAQALCDQGEYEGMLSYALSQMQLATDQNDSAMKCEAFLNLAKAYERLADFTKALQYGKASLEHPSMDPRTPGYAHLTIALAHLGMSQFQQCLESFESAMNVANETSDRLLELQICVGLGSLFTLLRDITKALIFLRNALAIVQSVTVDDVHAKYRCLILYHLSVALRMKGSLVDAKEACDEASQLAVEMGNRAIHARCMCSLADIYRELGESEAKETITKSWARYEDAYRVMRGANDKMGEVLVLSSMAKSASESRSHYTGQCECQAIQLNKKCIEIANQIGCKHVVLKCHLRLAELYSQLNDDDSEETARRAASRLTQEMQLFCNFCGQRYGLKDESLQALRCSHIFHEKCLHTYLLQRTDQTCPKCRCRAVLSDNISIRSSIASTIDVQSPSTSFAPPGGVATPLVSAAAELGDITPQATLTRRSQQDKILRGAEKDIDRVDRSLARLKSQQSAAANACSAVAVPSPEVPSTTASCASEPILTASTTSQSHTHSNANHKPPPPPRKPCCSQAALPPSSIVALPPAMPLAEDGPLVITHTPTVTDV” as the sequence, how does the “soluble on expression in E. coli” value read?
**A.** Its value is “not soluble”.

**Q.** Which “soluble on expression in E. coli” value does the source give for “QQIGLKTNLLYWGTTTPNAGLEFRMGKKWTLDVSGGYNPFTFSHHRKLKHWLVAPELRYWTCEAFSGHFFGLHGIGGEYNVNDIDIPIGRLKKLNNYRYE” here?
**A.** The value was “not soluble”.

**Q.** Which “soluble on expression in E. coli” value does the source give for “MSLTVKDILDAIQSPDSTPADIAALPLPESYRAITVHKDETEMFAGLETRDKDPRKSIHLDDVPVPELGPGEALVAVMASSVNYNSVWTSIFEPLSTFGFLERYGRVSDLAKRHDLPYHVIGSDLAGVVLRTGPGVNAWQAGDEVVAHCLSVELESSDGHNDTMLDPEQRIWGFETNFGGLAEIALVKSNQLMPKPDHLSWEEAAAPGLVNSTAYRQLVSRNGAGMKQGDNVLIWGASGGLGSYATQFALAGGANPICVVSSPQKAEICRAMGAEAIIDRNAEGYRFWKDENTQDPKEWKRFGKRIRELTGGEDIDIVFEHPGRETFGASVFVTRKGGTITTCASTSGYMHEYDNRYLWMSLKRIIGSHFANYREAWEANRLIAKGRIHPTLSKVYSLEDTGQAAYDVHRNLHQGKVGVLCLAPEEGLGVRDREKRAQHLDAINRFRNEGHHHHHH” here?
**A.** Its value is “soluble”.

**Q.** With “MEVARGLEGVLFTESRMCYIDGQQGKLYYYGIPIQELAEKSSFEETTFLLLHGRLPRRQELEEFSAALARRRALPAHLLESFKRYPVSAHPMSFLRTAVSEFGMLDPTEGDISREALYEKGLDLIAKFATIVAANKRLKEGKEPIPPREDLSHAANFLYMANGVEPSPEQARLMDAALILHAEHGFNASTFTAIAAFSTETDLYSAITAAVASLKGPRHGGANEAVMRMIQEIGTPERAREWVREKLAKKERIMGMGHRVYKAFDPRAGVLEKLARLVAEKHGHSKEYQILKIVEEEAGKVLNPRGIYPNVDFYSGVVYSDLGFSLEFFTPIFAVARISGWVGHILEYQELDNRLLRPGAKYVGELDVPYVPLEARE” as the sequence, how does the “soluble on expression in E. coli” value read?
**A.** The value was “soluble”.

**Q.** For “MGSDKIHHHHHHMKEVAIYIYMLAVKITGCLARIFPVKQKVVLLVSFPENSTAIIKQMNEMKVTPKTVVFYDPRVDVTGFNFDFIQLKPKKIKHFISLMFHLNTAKVVITDNYFVELAGLKERKNVTCIQIWHANGALKKFGWEDKAAQKRSARDKKRFQEVYRCFSKVLVGSDEMAAIFQRSFLLEDSHMLKLGIPRTDNFFNQQQLKENAERTNTKLHLSNKKKLLYAPTFRDEELHSTTLHLDIAKMKQALGNEYQLILKLHPSISNDLDEVVDDFVVYADKETPIETILPAVDILITDYSSIPFEFALLEKPMIFFTYDLEEYDKARGLSDGFLATIPGPFVHTTEELIQLIEQEAFDLEMVRAFAAKWNKYSDGHSSERFVSFLKEQLEK”, which “soluble on expression in E. coli” value is on record?
**A.** Its value is “not soluble”.

**Q.** With “MDIGINSDPPPRDWQLEKVVELSRAGIRPPTAGNREAIEAATGRPWTEWTTHDGELTGHGYAAVVNKGREEGQHYRQLGLLQAGCPTAESIYVRASPLQRTRATAQALVDGAFPGCGVAIHYANGDADPLFQTDKFAATQTDPARQLAAVKEKAGDLAQRRQALAPTIQLLKQAVCQADKPCPIFDTPWRVEQSKSGKTTISGLSVMANMVETLRLGWSENLPLSQLAWGKIAQASQITALLPLLTENYDLSNDVLYTAQKRGSVLLNAMLDGVKPEASPNVRWLLLVAHDTNIAMVRTLMNFSWQLPGYSRGNIPPGSSLVLERWRDAKSGERYLRVYFQAQGLDDLRRLQTPDAQHPMLRQEWRQPGCRQTDVGTLCPFQAAITALGQRIDRPSAPAVAMVLPKLAAALEHHHHHH” as the sequence, how does the “soluble on expression in E. coli” value read?
**A.** The value was “soluble”.

**Q.** Which “soluble on expression in E. coli” value does the source give for “MGSDKIHHHHHHMQILTIDVGGTTALFELQLAGHTEQYKIPTGEGFKIEELNNQIAALERDYDLQDYQLAIGVPGLVQNNRLVACKSLPGLNGLSFDTVKTQGELKFICNDMDAGMQATCDAKYACELLVMCGTGIGMSIAFNGQAFTGATGVAGELGHCRVMTESGEFSLEQLASGDSVRSRNITTQDDLYRAGSYLGMGLAWTVNLFNPNRIWLAGNMMNSAPYYKGCLESLKQMALSAPLAEMKINRVDDMETLVCRGLSAMLARDYPRA” here?
**A.** The value was “not soluble”.

**Q.** With “GPGSMKERRSVSQSRTSRTGQLRNGGFRESRFRVALMSRCARPSSSGTSHMFAPSSLPSVGQPSYESGVSSMPNISFPTCNDGALSPGDSMYPPSLPQRAKNKRTGQKDKQKRQSTLGSVDSEEEKRSFLASAAAFRRHRRYNNPFTAYCLASDPYDRPREIERQRQFMSCYKRIACRFVAGGKNALDKPTRYMLGDCVARLYKAVAADWPEADPMVVSSAEDLIVVFMNLDAVRNPVTALRYMNALLKRCDVVRAFDLKKVPEGWDVVTEDGHLMYTFRPPWVGERRFLPDQVAVKKSRGR” as the sequence, how does the “soluble on expression in E. coli” value read?
**A.** Its value is “not soluble”.

**Q.** For “NDRFQWTSTLNGTYLKNRVERLSGGENDFINGSSPAAGMVDYATIIKPGEAIGTFWGYEWTGLDEKGHDTYTDVDGNQMIDGGDRKVIGKANPDFTLGWNNSLSYKNWDLNLFFNGSFGAKRLNLVRYTMASAEGNSRFVTLADAYLKGFDKIGSSATYPSLTEGGNNLQPVSTKWLENADFLRLENISLSYTFPKKTTGFADLRLTFSCQNLFTITGYKGMDPAGTTFSNSSVDVDAGIDMGAYPSPRTFTFGLRMNF”, which “soluble on expression in E. coli” value is on record?
**A.** The value was “not soluble”.

**Q.** With “MGSDKIHHHHHHMSQMHQQLINEYTRTRLNEEAVSIERIYFYKTDKRVNPKQEEPFWHAAGDIPILVSAPHAVRHFRQKKIKMSDEYTGSIVYLLNKLTGCHAIAVTKLYGGDPNVDSPCIYKEKLAQLCRQGKIKLLLDIHGAARDRDFDVDFGTNNRRNLLEKMHTDEILAQNFRNCGFSKISSDYFAASSPNTIANFAARELGIPAVQIEINKHYRVPAQNPQGFHRLMAALVESINSVGRRYQEGWKDINRERKIR” as the sequence, how does the “soluble on expression in E. coli” value read?
**A.** The value was “not soluble”.

**Q.** For “MAHHHHHHMVLIKAKNNEGKTVGEGKFSPFCFVLYGDIQYGMIRANHGWYEERKLLKEAITKTNKIKPSFVVAMGDLANKFPIDELQNEQYKDLKTDFEQLDKSIDLYVFCGNHDVGNEPTHETISNFEHFWGDSYYSYIYNNCGFIILNSAVFFNDTQVQDLKEKQFLWLDETLKKMVSKNVKHKFLFLHHALMYDHIEEDENIGLIYGDKFRNYSEKNKFHIKKETRMVIYDMLKKYKVSHVFCAHLHANREKNIDANIKQITISAVGMQAASDQSGLMIVQVAEEGVDYKYYPFEFVPSFVKV”, which “soluble on expression in E. coli” value is on record?
**A.** Its value is “not soluble”.
